Article PMC11414387

Target: FBXO11 (UniProt Q86XK2)
Assay: co-IP of exogenous proteins
Conditions: reference: wild type

Substance	binding against the reference (sites S33)	binding against the reference (sites S37)
β-catenin (from UniProt P35222) S33A	lost	
β-catenin (from UniProt P35222) S37A		lost
